This is an account of results in the supplement of paper PMC10899765.

What all share (details): 20 nM; 72 h
In data set [1] the test system is MCF10A. Briefly: 5+ nucleoli phenotype percent effect (relative to siNT 0% and siKIF11 100%); higher = more cells with five or more nucleoli. As for the experimental part:
(§1)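 After 72 h, cells were fixed and stained with Hoechst and anti-fibrillarin, and nucleoli per nucleus were counted with CellProfiler. Values are plate-adjusted percent effect for the one-nucleolus and 5+ nucleoli phenotypes, normalised to siNT (0%) and to the positive controls siNOL11 or siKIF11 (100%), as the mean of biological triplicates. Percent viability is the nuclei count relative to siNT.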

Data set [2] relates to MCF10A. Briefly: one-nucleolus phenotype percent effect (relative to siNT 0% and siNOL11 100%); higher = more cells with one nucleolus (ribosome biogenesis inhibition). As for the experimental part: as §1
Data set [3] has as its system MCF10A. Put plainly: percent viability (nuclei count relative to siNT); higher = more viable cells. The procedure: as §1

As for “UUCUCAAGAGGGAGGCAAUCAU [hsa-miR-514b-5p]”, the “5+ nucleoli phenotype percent effect” value with MCF10A [1] turned out to be 36.5%. In addition, in the data set on MCF10A [2], the “one-nucleolus phenotype percent effect” value was -22.9%. Moreover, the percent viability in the data set with MCF10A [3] came to 43.1%.

As to GUGAAAUGUUUAGGACCACUAG [hsa-miR-203a], in the data set with MCF10A [1], the “5+ nucleoli phenotype percent effect” value is 3.03%. Moreover, the “one-nucleolus phenotype percent effect” value in the data set with MCF10A [2] was found to be 10.2%. The percent viability with MCF10A [3] was 40.9%.

Take ACAGCACUGCCUGGUCAGA [hsa-miR-383-3p]: the “5+ nucleoli phenotype percent effect” value in the data set on MCF10A [1] was -19%. In addition, the “one-nucleolus phenotype percent effect” value in the data set with MCF10A [2] is -8.43%. For the same sequence, in the data set with MCF10A [3], the percent viability came to 54.9%.

Take “AUUGUCCUUGCUGUUUGGAGAU [hsa-miR-2355-3p]”: in the data set with MCF10A [1], the “5+ nucleoli phenotype percent effect” value is -3.53%. Moreover, in the data set on MCF10A [2], the “one-nucleolus phenotype percent effect” value is -8.98%. Further, the percent viability with MCF10A [3] worked out at 55.4%.

Turning to “UUUCCUGUCCUCCAACCAGACC [hsa-miR-7152-5p]”, the “5+ nucleoli phenotype percent effect” value with MCF10A [1] is -28.9%. Moreover, the “one-nucleolus phenotype percent effect” value in the data set on MCF10A [2] amounted to 11.7%. Moreover, the percent viability with MCF10A [3] was 26.5%.

ACUGCAUUAUGAGCACUUAAAG [hsa-miR-20a-3p]: the “5+ nucleoli phenotype percent effect” value in the data set with MCF10A [1] is 43.3%. In the data set with MCF10A [2], the “one-nucleolus phenotype percent effect” value was -23.3%. Also, the percent viability in the data set on MCF10A [3] came out at 138%.

For the sequence CAAAUGGACAGGAUAACACCU [hsa-miR-4694-3p], in the data set on MCF10A [1], the “5+ nucleoli phenotype percent effect” value was -11.7%. Also, the “one-nucleolus phenotype percent effect” value in the data set with MCF10A [2] stood at 11.8%. In the data set on MCF10A [3], the percent viability was found to be 35.9%.

As for GUGGUCUCUUGGCCCCCAG [hsa-miR-6848-3p], in the data set on MCF10A [1], the “5+ nucleoli phenotype percent effect” value stood at 34.8%. The “one-nucleolus phenotype percent effect” value in the data set with MCF10A [2] was -17.9%. Further, the percent viability with MCF10A [3] was 77.3%.

As to CCUCUAGAUGGAAGCACUGUCU [hsa-miR-517-5p], the “5+ nucleoli phenotype percent effect” value in the data set on MCF10A [1] worked out at 23.9%. Moreover, the “one-nucleolus phenotype percent effect” value in the data set with MCF10A [2] was 2.26%. Besides, in the data set with MCF10A [3], the percent viability is 56%.

Regarding “ACUCGCAUCCUUCCCUUGGCAG [hsa-miR-6814-3p]”, the “5+ nucleoli phenotype percent effect” value in the data set with MCF10A [1] stood at 32.1%. The “one-nucleolus phenotype percent effect” value with MCF10A [2] was -25.3%. Besides, the percent viability with MCF10A [3] was found to be 118%.

As to UUAGUCCUGCCUGUAGGUUUA [hsa-miR-4540], in the data set on MCF10A [1], the “5+ nucleoli phenotype percent effect” value was -37.9%. For the same sequence, the “one-nucleolus phenotype percent effect” value in the data set with MCF10A [2] came to 8.27%. For the same sequence, the percent viability with MCF10A [3] was found to be 39.3%.

Regarding UGGGAGCUAAGCUAUGGGUAU [hsa-miR-5591-5p], in the data set on MCF10A [1], the “5+ nucleoli phenotype percent effect” value was -6.94%. For the same sequence, the “one-nucleolus phenotype percent effect” value in the data set on MCF10A [2] was found to be 13.6%. Moreover, the percent viability in the data set with MCF10A [3] was determined as 13.9%.

For the sequence UAGUACCAGUACCUUGUGUUCA [hsa-miR-624-5p], in the data set on MCF10A [1], the “5+ nucleoli phenotype percent effect” value was -9.19%. Besides, the “one-nucleolus phenotype percent effect” value in the data set on MCF10A [2] was -2.83%. For the same sequence, in the data set with MCF10A [3], the percent viability was 26.3%.

In the case of “AGGGGACUGGUUAAUAGAACUA [hsa-miR-4652-5p]”, in the data set with MCF10A [1], the “5+ nucleoli phenotype percent effect” value was -5.22%. Further, the “one-nucleolus phenotype percent effect” value with MCF10A [2] is 47.2%. In addition, the percent viability with MCF10A [3] stood at 14.5%.

Turning to CGAGCCUCAAGCAAGGGACUU [hsa-miR-2114-3p], in the data set with MCF10A [1], the “5+ nucleoli phenotype percent effect” value is -15.9%. Moreover, the “one-nucleolus phenotype percent effect” value in the data set on MCF10A [2] is 19.8%. Moreover, the percent viability in the data set on MCF10A [3] was 32.7%.

Consider “CUUGGAUUUUCCUGGGCCUCAG [hsa-miR-5004-3p]”, for which the “5+ nucleoli phenotype percent effect” value with MCF10A [1] is -12%. In addition, the “one-nucleolus phenotype percent effect” value in the data set on MCF10A [2] was 4.88%. Further, in the data set with MCF10A [3], the percent viability came out at 51.4%.

Turning to “AAAAGUAAUUGCGGUUUUUGCC [hsa-miR-548am-5p]”, the “5+ nucleoli phenotype percent effect” value with MCF10A [1] turned out to be 39.6%. Besides, in the data set on MCF10A [2], the “one-nucleolus phenotype percent effect” value was -17.6%. Besides, in the data set with MCF10A [3], the percent viability worked out at 139%.

For the sequence UGAGGGGUUUGGAAUGGGAUGG [hsa-miR-5194], in the data set on MCF10A [1], the “5+ nucleoli phenotype percent effect” value came out at 21%. In addition, the “one-nucleolus phenotype percent effect” value with MCF10A [2] amounted to 13.7%. In addition, the percent viability with MCF10A [3] amounted to 14.8%.

As for “UGUUGCAAGUCGGUGGAGACGU [hsa-miR-4684-3p]”, the “5+ nucleoli phenotype percent effect” value with MCF10A [1] was -9.23%. Besides, the “one-nucleolus phenotype percent effect” value in the data set with MCF10A [2] turned out to be 4.39%. Also, in the data set on MCF10A [3], the percent viability worked out at 43.9%.

As to AAAAGUAAUUGCGGAUUUUGCC [hsa-miR-548i], in the data set with MCF10A [1], the “5+ nucleoli phenotype percent effect” value amounted to 20.3%. Also, the “one-nucleolus phenotype percent effect” value in the data set with MCF10A [2] is -17.1%. For the same sequence, in the data set on MCF10A [3], the percent viability worked out at 140%.

For “UCAGCAGGCAGGCUGGUGCAGC [hsa-miR-3619-5p]”, the “5+ nucleoli phenotype percent effect” value in the data set on MCF10A [1] is -36.5%. The “one-nucleolus phenotype percent effect” value in the data set with MCF10A [2] stood at 56.3%. For the same sequence, the percent viability in the data set with MCF10A [3] was determined as 27.1%.

In the case of “UGAGUACCGCCAUGUCUGUUGGG [hsa-miR-1911-5p]”, the “5+ nucleoli phenotype percent effect” value in the data set on MCF10A [1] amounted to 17.2%. In addition, the “one-nucleolus phenotype percent effect” value in the data set with MCF10A [2] is -20.9%. For the same sequence, the percent viability in the data set on MCF10A [3] turned out to be 108%.

Turning to GGGGCCUGGCGGUGGGCGG [hsa-miR-2861], the “5+ nucleoli phenotype percent effect” value with MCF10A [1] is 87.4%. Also, the “one-nucleolus phenotype percent effect” value with MCF10A [2] is -37.2%. Moreover, the percent viability with MCF10A [3] was 80.1%.

Consider “UCACCAGCCCUGUGUUCCCUAG [hsa-miR-1226-3p]”, for which, in the data set on MCF10A [1], the “5+ nucleoli phenotype percent effect” value was -42.2%. Further, the “one-nucleolus phenotype percent effect” value with MCF10A [2] was 33.5%. Moreover, the percent viability with MCF10A [3] turned out to be 31.7%.
